Test results taken from paper doi:10.1101/779439.

Molecular target: peptide of CD3 zeta chain containing SNID2 (residues 115-135)
Test: ITC

| Substance | Kd [µM] |
| --- | --- |
| HIV-2 consensus Nef core domain (residues 90-256) (domain or fragment) | 12 |
| SIVmac239 Nef full core domain (residues 90-263), His-tagged, as used for ITC (domain or fragment) | 5 |
